# “Also recorded” adds a separate entry of the source. Ends that are not written are not given here.
# Legend:
# [1] = target: T1, α4β7 integrin on CD8+ T-cells (Homo sapiens, UniProt P13612+P26010); experiment: Flow cytometry: gp120 binding to RA-cultured CD8+ T-cells; conditions: peptide at 0.19 μM-12.5 μM (FIG. 8a)
# T1 construct: Purified CD4+ T cells and NK cells were obtained by negative selection using magnetic beads; On NKs β7 integrin pairs with α4 integrin (CD49d); endogenous in cells; host or cells: freshly isolated NK cells; OKT3/IL2/retinoic acid-cultured PBMCs (CD8-depleted, i.e. CD4+ T cells) and CD8+ T cells from healthy donors
# T1 sequence (P13612 34-1032): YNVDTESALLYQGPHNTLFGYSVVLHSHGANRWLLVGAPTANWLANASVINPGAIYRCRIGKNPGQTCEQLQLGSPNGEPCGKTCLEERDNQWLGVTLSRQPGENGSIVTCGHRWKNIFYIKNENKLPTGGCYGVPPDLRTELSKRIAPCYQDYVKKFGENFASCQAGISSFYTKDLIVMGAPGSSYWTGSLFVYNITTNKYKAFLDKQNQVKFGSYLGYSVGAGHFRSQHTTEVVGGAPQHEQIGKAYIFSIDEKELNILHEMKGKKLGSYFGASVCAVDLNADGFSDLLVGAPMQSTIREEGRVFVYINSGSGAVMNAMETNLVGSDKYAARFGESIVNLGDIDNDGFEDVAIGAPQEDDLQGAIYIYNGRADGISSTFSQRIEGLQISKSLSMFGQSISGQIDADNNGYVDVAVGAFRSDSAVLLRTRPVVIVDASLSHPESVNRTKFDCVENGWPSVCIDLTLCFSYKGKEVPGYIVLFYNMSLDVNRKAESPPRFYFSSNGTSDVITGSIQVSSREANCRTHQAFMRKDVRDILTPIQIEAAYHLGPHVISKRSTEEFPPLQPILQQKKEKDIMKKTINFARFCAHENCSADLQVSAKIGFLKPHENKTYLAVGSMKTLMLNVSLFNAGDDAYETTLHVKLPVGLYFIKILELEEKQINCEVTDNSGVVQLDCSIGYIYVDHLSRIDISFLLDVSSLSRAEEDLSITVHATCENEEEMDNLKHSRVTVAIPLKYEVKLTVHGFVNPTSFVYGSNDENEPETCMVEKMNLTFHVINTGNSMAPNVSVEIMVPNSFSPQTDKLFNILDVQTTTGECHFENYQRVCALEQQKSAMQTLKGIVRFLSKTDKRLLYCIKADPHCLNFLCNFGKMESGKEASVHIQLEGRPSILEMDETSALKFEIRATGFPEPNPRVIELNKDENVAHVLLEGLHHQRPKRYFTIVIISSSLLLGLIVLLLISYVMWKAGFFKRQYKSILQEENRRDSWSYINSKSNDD
# T1 sequence (P26010 20-798): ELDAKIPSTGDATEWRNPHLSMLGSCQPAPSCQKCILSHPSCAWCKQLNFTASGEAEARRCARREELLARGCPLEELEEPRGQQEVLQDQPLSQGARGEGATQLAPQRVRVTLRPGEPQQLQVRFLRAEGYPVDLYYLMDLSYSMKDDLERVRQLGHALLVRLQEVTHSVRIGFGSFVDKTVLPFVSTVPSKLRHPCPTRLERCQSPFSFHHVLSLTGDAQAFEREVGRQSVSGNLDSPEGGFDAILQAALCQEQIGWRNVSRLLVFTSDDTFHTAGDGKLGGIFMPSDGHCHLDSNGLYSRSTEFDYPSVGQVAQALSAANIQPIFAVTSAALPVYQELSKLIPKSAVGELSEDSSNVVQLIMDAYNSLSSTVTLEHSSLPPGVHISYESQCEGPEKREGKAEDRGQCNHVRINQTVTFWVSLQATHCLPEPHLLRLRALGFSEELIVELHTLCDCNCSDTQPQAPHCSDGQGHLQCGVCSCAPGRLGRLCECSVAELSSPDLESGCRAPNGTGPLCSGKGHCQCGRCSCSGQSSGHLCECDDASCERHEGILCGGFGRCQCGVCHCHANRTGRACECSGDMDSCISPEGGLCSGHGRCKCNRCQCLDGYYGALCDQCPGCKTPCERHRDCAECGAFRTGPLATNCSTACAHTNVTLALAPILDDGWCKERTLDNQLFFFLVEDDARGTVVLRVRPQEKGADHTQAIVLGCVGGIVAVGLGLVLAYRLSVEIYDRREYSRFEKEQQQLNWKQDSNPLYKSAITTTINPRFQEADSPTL
# Protocol: Cells and Reagents. Freshly isolated PBMCs were obtained from healthy donors and separated by Ficoll-Hypaque. Purified CD4+ T cells and NK cells were obtained by negative selection using magnetic beads (StemCell Technologies, Vancouver, BC). Cultured PBMCs were activated with OKT3, IL2 (201 U/ml) and retinoic acid (RA, 10 nM) unless otherwise specified. RA was obtained from Sigma Chemical (St. Louis, Mo.). Recombinant Ig-fusion proteins (MadCAM, VCAM-1, E-cadherin) were purchased from R&D Systems (Minneapolis, Minn.). Integrin antibodies were obtained from Serotech Laboratories Ltd. (Raleigh, N.C.) and Chemicon (Temecula, Calif.), while FITC, PE, APC surface marker antibodies were acquired from Beckton Dickinson (San Diego, Calif.). Cyclic peptides CWLDVC (SEQ ID NO:1) and the scrambled control peptide CDLWC (SEQ ID NO:31) were obtained from NeoMPS (San Diego, Calif.). Recombinant gp120s were produced and purified as described in supplemental methods, using hollow-fiber bioreactors (Fibercell Systems, Frederick, Md.). Integrin cDNA expression vectors were acquired from ORIGENE™ (ORIGENE is a trademark of OriGene Technologies, Inc., Rockville, Md.). […]
# Recombinant gp120 protein labeling. […] Biotin incorporation was determined by reacting gp120s with 4′-hydroxyazobenzene-2-carboxylic acid-avidin conjugates (HABA) per the manufacturer's instructions (Pierce Chemical, Rockford, Ill.). […]
# α4β7 integrin = target: T2, α4β7 integrin (Homo sapiens, UniProt P13612+P26010); conditions: fibronectin, VCAM, MadCAM (Vanderslice et al. 1997); cited from earlier work
# T2 sequence (P13612 34-1032): T1 sequence (P13612 34-1032)
# T2 sequence (P26010 20-798): T1 sequence (P26010 20-798)
substance,measurement,setting,value
"CWLDVC (also: cyclic, kind of ring not given here)",inhibition of gp120-binding to RA cultured CD8+ T-cells by cyclic peptide,[1],inhibited by CWLDVC in a dose dependent manner
same,inhibition of binding of natural ligands to α4 / α4β7 integrin,α4β7 integrin,"inhibit α4 integrin subunit binding to fibronectin, VCAM and MadCAM; also recorded: inhibit binding of all three natural ligands"
